According to publication PMC10760634:

Columns and labels:
[1] = target: the PHD and PHF7 (KD values in the range of 3–6 µM); assay: MST
[2] = target: UBE2D2∼Ub (ubiquitin-conjugated UBE2D2 S22R/C85K) (UniProt P62837); assay: SEC
[3] = target: UBE2D2∼Ub (ubiquitin-conjugated UBE2D2 S22R/C85K) (UniProt P62837); assay: ITC

Chain of PHF7 (mPHF7 28–307) (Q9DAG9 28-307): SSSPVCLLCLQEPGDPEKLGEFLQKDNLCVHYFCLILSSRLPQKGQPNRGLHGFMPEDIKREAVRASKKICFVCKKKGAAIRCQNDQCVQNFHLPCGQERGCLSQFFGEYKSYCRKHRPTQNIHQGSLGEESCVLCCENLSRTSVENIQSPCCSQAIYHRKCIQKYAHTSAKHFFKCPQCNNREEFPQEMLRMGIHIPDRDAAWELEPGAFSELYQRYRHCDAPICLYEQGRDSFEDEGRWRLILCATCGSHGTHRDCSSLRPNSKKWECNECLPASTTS

“H3K4me2(1–44) (from UniProt P84233 2-45) (peptide)” was tested, and the Kd [1] was 3 to 6 µM.

“PHF7 (mPHF7 28–307) (from UniProt Q9DAG9 28-307) (domain or fragment)” showed a stoichiometry N [2] of 1, a Kd [3] of 0.4 µM and a fold stronger affinity than for UBE2D2 alone [3] of 3 fold.

“PHF7 RING–PHD (150–307) C164A (from UniProt Q9DAG9 150-307) (domain or fragment)” was tested, and the fold lower affinity than PHF7 [3] was 7 fold.
